# Source: article PMC8152475 (Biomedicines, 2021)
# T1: unlabeled recombinant TBK1 (UniProt Q9UHD2 1-729)
# T1 sequence (looked up): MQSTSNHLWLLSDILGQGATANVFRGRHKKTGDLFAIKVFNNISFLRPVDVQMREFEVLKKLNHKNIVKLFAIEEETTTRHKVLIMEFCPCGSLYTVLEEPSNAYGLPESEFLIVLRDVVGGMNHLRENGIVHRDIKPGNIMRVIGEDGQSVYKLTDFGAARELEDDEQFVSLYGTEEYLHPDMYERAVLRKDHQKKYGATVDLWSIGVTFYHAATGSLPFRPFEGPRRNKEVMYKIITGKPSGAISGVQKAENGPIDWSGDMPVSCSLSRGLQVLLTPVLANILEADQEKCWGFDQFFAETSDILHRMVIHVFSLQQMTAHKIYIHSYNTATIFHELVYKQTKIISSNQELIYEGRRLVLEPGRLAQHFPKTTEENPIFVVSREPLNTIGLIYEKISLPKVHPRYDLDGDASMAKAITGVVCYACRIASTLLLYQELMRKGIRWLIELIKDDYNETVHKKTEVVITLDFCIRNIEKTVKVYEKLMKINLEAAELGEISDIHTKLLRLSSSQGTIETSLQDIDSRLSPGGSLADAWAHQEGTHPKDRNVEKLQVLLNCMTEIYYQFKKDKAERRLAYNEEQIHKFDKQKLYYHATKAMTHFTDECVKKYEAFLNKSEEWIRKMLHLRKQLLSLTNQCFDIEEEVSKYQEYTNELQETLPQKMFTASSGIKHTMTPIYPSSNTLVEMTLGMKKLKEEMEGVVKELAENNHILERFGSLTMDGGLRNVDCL
# T2: unlabeled recombinant HK2 (UniProt P52789 1-917)
# T2 sequence (looked up): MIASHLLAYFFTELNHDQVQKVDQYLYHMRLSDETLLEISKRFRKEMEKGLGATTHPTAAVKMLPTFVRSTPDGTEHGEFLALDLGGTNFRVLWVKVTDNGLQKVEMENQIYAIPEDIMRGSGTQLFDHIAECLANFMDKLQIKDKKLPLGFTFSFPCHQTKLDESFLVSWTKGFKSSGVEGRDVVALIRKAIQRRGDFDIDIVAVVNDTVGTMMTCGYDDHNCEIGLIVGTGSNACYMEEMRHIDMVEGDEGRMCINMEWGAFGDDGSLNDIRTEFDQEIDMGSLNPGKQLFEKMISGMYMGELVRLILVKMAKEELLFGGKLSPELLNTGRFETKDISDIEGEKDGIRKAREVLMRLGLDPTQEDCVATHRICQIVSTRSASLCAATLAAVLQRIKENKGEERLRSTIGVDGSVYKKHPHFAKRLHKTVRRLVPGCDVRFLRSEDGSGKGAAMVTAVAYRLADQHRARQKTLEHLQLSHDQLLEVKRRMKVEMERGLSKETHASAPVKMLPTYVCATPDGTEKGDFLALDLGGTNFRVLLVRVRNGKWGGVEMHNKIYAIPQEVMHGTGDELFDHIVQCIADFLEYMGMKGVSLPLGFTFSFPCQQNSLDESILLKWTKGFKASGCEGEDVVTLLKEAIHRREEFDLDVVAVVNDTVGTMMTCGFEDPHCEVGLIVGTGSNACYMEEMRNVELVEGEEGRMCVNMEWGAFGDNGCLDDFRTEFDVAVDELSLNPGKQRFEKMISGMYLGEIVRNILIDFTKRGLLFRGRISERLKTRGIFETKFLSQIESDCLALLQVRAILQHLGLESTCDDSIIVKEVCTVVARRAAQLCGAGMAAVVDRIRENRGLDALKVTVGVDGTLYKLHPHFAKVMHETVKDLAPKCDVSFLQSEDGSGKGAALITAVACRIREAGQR
# T3: unlabeled recombinant p47phox (UniProt P14598 1-390)
# T3 sequence (looked up): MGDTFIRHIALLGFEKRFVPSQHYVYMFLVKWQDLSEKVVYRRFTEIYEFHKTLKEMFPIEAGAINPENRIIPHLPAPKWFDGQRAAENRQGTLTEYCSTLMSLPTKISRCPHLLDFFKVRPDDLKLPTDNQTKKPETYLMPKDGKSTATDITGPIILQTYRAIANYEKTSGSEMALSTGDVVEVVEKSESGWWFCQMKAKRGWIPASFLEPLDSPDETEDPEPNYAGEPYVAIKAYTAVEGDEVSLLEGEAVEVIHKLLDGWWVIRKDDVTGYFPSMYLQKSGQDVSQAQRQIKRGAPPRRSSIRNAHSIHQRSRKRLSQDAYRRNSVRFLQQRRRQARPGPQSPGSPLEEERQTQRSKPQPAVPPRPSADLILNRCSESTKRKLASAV
# T4: TBK1 (Homo sapiens, UniProt Q9UHD2)
# T4 sequence (Q9UHD2 1-729): T1 sequence (looked up)
# B1: fluorescently labelled MPT64 (natural protein)
# chain: APKTYCEELKGTDTGQACQIQMSDPAYNINISLPSYYPDQKSLENYIAQTRDKFLSAATSSTPREAPYELNITSATYQSAIPPRGTQAVVLKVYQNAGGTHPTTTYKAFDWDQAYRKPITYDTLWQADTDPLPVVFPIVQGELSKQTGQQVSIAPNAGLDPVNYQNFAVTNDGVIFFFNPGELLPEAAGPTQVLVPRSAIDSMLA
# B2: rMPT64: recombinant MPT64, produced in a bacterially expressed system as MPT63 (protein)
# chain: B1 chain
# B3: fluorescently labelled MPT63 (natural protein)
# chain: AYPITGKLGSELTMTDTVGQVVLGWKVSDLKSSTAVIPGYPVAGQVWEATATVNAIRGSVTPAVSQFNARTADGINYRVLWQAAGPDTISGATIPQGEQSTGKIYFDVTGPSPTIVAMNNGMEDLLIWEP
# B4: MPT63: secretory immunodominant antigen of MTB (protein)
# chain: B3 chain
# B5: rMPT63: recombinant MPT63, purified using a 6x His bacterially expressed system (protein)
# chain: B3 chain
# What was measured:
# [1] = target: T1, unlabeled recombinant TBK1; assay: other fluorescence titration; details: both partners purified
# [2] = target: T2, unlabeled recombinant HK2; assay: other fluorescence titration; details: both partners purified
# [3] = test system: host proteins in THP-1 macrophage cell lysates; assay: Co-immunoprecipitation from THP-1 cell lysates with mass spectrometry identification of binding partners; set-up: species or system human
# TBK1 [4] = assay: Endogenous co-immunoprecipitation with TBK1 in THP-1 cells; assay type: binding, human; details: 5 μg mL^−1, IP with αHis-agarose bead
# Experimental: (§1) Figure 1 TBK1 and p47phox is bound with MPT63. (A) Identification of TBK1 and p47phox by mass spectrometry analysis in THP-1 cell lysates treated with rMPT63 or rVector. (B) THP-1 cells were stimulated with rMPT63 (5 μg mL^−1) for the indicated times, followed by immunoprecipitation (IP) with αHis-agarose bead and IB with αTBK1, αP-TBK1 (S172), αp47phox, αP-p47phox (S304, 345, 359, and 370), αHis, αActin. […] (E,G) Binding mapping. Schematic diagrams of the structures of MPT63 (upper). At 48 h after transfection with mammalian glutathione S-transferase (GST) or GST-MPT63 and truncated mutant constructs together with Flag-TBK1 or V5-p47phox. 293T cells were used for GST pull down, followed by IB with αFlag or αV5. Cell lysates (WCLs) were used for IB with αFlag or αV5, αGST, and αActin. […]
# (§2) Antibody binding was visualized by chemiluminescence (ECL; Millipore) and detected by a Vilber chemiluminescence analyzer (Fusion SL 3; Vilber Lourmat).
# (§3) Confocal fluorescence microscopy
# (§4) Immunofluorescence analysis was performed as described previously (Koh et al, 2017). […] TRAF6 or His was detected using a 1/100 dilution of the primary Ab for 1 h at 25 °C. […]
# (§5) Cell viability relative to non-treated group was measured by MTT assay, as […]
# [5] = target: T3, unlabeled recombinant p47phox; assay: other fluorescence titration; details: both partners purified
# TBK1 [6] = target: T4, TBK1; assay type: binding
# p47phox [7] = assay type: binding
# macrophages = details: conformational switch dependent on the pH of the host; ref [8]; cited from earlier work
# [8] = test system: murine peritoneal macrophages; details: TNF-α and IL-6 secretion, ref [9]; cited from earlier work
# [9] = test system: HLA-DR, an MHC class II cell surface receptor; details: MPT63 and its epitope; ref [44]; cited from earlier work
# Th1 cell = details: MPT63 and its epitope; ref [44]; cited from earlier work
# p47phox [10] = assay: Endogenous co-immunoprecipitation with p47phox in THP-1 cells; assay type: binding, human; details: rMPT63 5 μg mL^−1, IP with αHis-agarose bead
# Experimental: as §1, §2, §3, §4, §5
molecule,measurement,setting,value
B1,Kd,[1],193 nM
same,Kd,[2],134 nM
B2,binding partners identified by mass spectrometry,[3],"interacted with several host proteins, including hexokinase 2 (HK2, 102K), TBK1 (83K), protein kinase Cα (PKCα, 76K), TNF receptor associated factor 6 (TRAF6, 60K), and p38MAPK (38K)"
same,endogenous interaction with TBK1 and phosphorylated form,TBK1 [4],phosphorylated TBK1 (S172) also interacted with rMPT64
B3,Kd,[1],178 nM
same,Kd,[5],345 nM
B4,region of MPT protein binding TBK1,TBK1 [6],"the N-terminal of MPT63 bound with TBK1 and 48–56 peptide was essential for the interaction between MPT63 and TBK1. Specifically, 50–56 amino acids, except G53, seemed to be fundamental for binding"
same,region of MPT63 binding p47phox,p47phox [7],"The C-terminal of MPT63 was associated with p47phox, particularly the 150–159 amino acids in the C-terminal domain of MPT63 were important for binding with p47phox. Additionally, E152, D153, and E158 in MPT63 were key amino acids"
same,macrophage cell death,macrophages,induced cell death of macrophages
same,phagocytic activity,[8],enhanced the phagocytic activity by upregulating the secretion of TNF-α and IL-6
same,binding to HLA-DR,[9],bind promiscuously to HLA-DR
same,Th1 cell reactivity,Th1 cell,induce a moderate Th1 cell reactivity
B5,binding partners identified by mass spectrometry,[3],"included TANK-binding kinase (TBK1, 83K), receptor-interacting serine/threonine-protein kinase 1 (RIP1, 75K), RAC-alpha serine/threonine-protein kinase (AKT, 55K), Neutrophil cytosol factor 1 (p47phox, 45K), and p38 mitogen-activated protein kinase (p38MAPK, 38K)"
same,endogenous interaction with TBK1 and phosphorylated form,TBK1 [4],"interacted with TBK1 and p47phox and, interestingly, with their phosphorylated forms as well"
same,endogenous interaction with p47phox and phosphorylated forms,p47phox [10],"interacted with TBK1 and p47phox and, interestingly, with their phosphorylated forms as well (S345 and S359)"
